Test [1] addresses T1, BMP10 growth factor (GF)-domain from Pro:BMP10 made in HEK EBNA cells, O95393.
T1 chain: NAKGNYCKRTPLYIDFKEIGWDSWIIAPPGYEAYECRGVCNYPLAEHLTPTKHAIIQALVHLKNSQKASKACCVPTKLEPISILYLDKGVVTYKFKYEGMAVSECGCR
Put plainly: ELISA (prodomain displacement). The conditions noted are these: chain shown with the change; BMPRII ECD at 125x excess over Pro:BMP10; lower reading = more prodomain displaced; parent: est. 0.42; read off a plot. On the technique in general: In an ELISA, binding on a coated surface is turned into a signal by an enzyme label.

The target in test [2] is T2, Recombinant human BMP10 growth factor (GF)-domain (R&D Systems), O95393.
T2 chain: T1 chain
Nature of the test: SPR (Biacore). The note with it: chain shown with the change, BMP10 immobilised on a CM5 Biacore chip. For orientation: In SPR one partner is held on a chip, and binding of the other changes the refractive index at the surface.

The target in test [3] is T1, BMP10 growth factor (GF)-domain from …. Put plainly: native PAGE prodomain displacement (densitometry). The conditions noted are these: chain shown with the change, lower ratio = more prodomain displaced, read off a plot.

B1: BMPRII extracellular domain (ECD), wild type, Q13873-1 ΔGDP (del of Gly, Asp and Pro in the A-loop) (protein)
chain: SQNQERLCAFKDPYQQDLGIGESRISHENGTILCSKGSTCYGLWEKSKGDINLVKQGCWSHIQECHYEECVVTTTPPSIQNGTYRFCCCSTDLCNVNFTENFPPPDTTPLSPPHSFNRDET
By Kd is commonly meant the constant that tells how readily two partners part at equilibrium. By koff is commonly meant a measure of how fast the partners let go of each other. As for B1, in test [1], the other: OD reading, normalized to no BMPRII control worked out at 0.62. Further, the dissociation constant (Kd) in test [2] (parent: 1.19E-06 M) worked out at 1.17 µM. Besides, the koff in test [2] (parent: 1.61E-01 s-1) was found to be 0.0583 s⁻¹. The other: Pro:BMP10/prodomain ratio, normalized to no BMPRII control was 0.94 in test [3] (BMPRII ECD at 2-fold excess (2x) over Pro:BMP10, parent: est. 0.59) and 0.74 in test [3] (BMPRII ECD at 5-fold excess (5x) over Pro:BMP10, parent: est. 0.46).

For the origin of these results see publication PMC9064986.
